Source: PMC3500696
Read-outs that look alike come from different tables or passages of the source.

Experiments:
[1] = target: porcine CSF-1R expressed in Ba/F3 cells (pig)
[2] = target: porcine CSF-1R expressed in Ba/F3 cells (pig); remark: listed apart in the source

In the case of “bacterially produced porcine CSF-1 (active fragment Ser36-Arg189) (ligand)”, the EC50, MTT cell viability assay, Ba/F3 cells expressing porcine CSF-1R [1] is reported as 0.029 µg/mL.

Molecule “recombinant human CSF-1 (from UniProt P09603 33-554) (ligand)” has an EC50, MTT cell viability assay, Ba/F3 cells expressing porcine CSF-1R (compared with rhIL-34) [2] of 0.1 µg/mL and an EC50, MTT cell viability assay, Ba/F3 cells expressing porcine CSF-1R (compared with bacterially produced porcine CSF-1) [1] of 0.034 µg/mL.

B1: recombinant human Interleukin 34 (ligand)
chain: NEPLEMWPLTQNEECTVTGFLRDKLQYRSRLQYMKHYFPINYKISVPYEGVFRIANVTRLQRAQVSERELRYLWVLVSLSATESVQDVLLEGHPSWKYLQEVETLLLNVQQGLTDVEVSPKVESVLSLLNAPGPNLKLVRPKALLDNCFRVMELLYCSCCKQSSVLNWQDCEVPSPQSCSPEPSLQYAATQLYPPPPWSPSSPPHSTGSVRPVRAQGEGLLP
With B1 the EC50, MTT cell viability assay, Ba/F3 cells expressing porcine CSF-1R [2] was 0.137 µg/mL.
